This is an account of results in paper PMC5308896, “A conformational switch regulates the ubiquitin ligase HUWE1” (eLife, 2017).

Experiment in all cases: fluorescence polarisation; apparent KD; constant 1 μM TAMRA-labelled p14ARF (45–64) peptide titrated with HUWE1 protein; 25°C, 20 mM HEPES pH 8.0, 150 mM NaCl, 10% glycerol, 1 mM EDTA, 5 mM DTT; three independent experiments
Details in all cases: both partners purified
In general terms: In fluorescence polarisation assays a small probe gives low polarisation when free and higher when bound to something large.

The target in experiment [1] is T1, HUWE1 (3843–4374) (human, UniProt Q7Z6Z7 3843-4374).
T1 construct: source: LOBSTR RIL cells, purified (IMAC, gel filtration)
T1 sequence (looked up): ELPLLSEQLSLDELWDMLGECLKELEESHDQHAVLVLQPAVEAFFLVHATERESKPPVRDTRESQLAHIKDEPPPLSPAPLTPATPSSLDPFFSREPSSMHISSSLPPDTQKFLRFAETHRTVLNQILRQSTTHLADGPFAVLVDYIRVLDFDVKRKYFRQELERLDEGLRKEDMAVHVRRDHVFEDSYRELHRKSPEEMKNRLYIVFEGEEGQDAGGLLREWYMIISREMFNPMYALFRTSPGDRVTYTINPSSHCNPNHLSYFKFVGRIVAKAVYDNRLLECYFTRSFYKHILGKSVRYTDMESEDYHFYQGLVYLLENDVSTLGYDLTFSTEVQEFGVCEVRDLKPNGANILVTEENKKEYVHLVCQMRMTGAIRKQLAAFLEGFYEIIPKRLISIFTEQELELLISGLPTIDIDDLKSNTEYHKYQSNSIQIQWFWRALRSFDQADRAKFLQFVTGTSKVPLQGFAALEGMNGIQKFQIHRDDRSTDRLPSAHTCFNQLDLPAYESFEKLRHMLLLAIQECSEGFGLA

Experiment [2] has as its target T2, HUWE1 (3810–4374) (human, UniProt Q7Z6Z7 3810-4374).
T2 construct: source: LOBSTR RIL cells, purified (IMAC, gel filtration)
T2 sequence (looked up): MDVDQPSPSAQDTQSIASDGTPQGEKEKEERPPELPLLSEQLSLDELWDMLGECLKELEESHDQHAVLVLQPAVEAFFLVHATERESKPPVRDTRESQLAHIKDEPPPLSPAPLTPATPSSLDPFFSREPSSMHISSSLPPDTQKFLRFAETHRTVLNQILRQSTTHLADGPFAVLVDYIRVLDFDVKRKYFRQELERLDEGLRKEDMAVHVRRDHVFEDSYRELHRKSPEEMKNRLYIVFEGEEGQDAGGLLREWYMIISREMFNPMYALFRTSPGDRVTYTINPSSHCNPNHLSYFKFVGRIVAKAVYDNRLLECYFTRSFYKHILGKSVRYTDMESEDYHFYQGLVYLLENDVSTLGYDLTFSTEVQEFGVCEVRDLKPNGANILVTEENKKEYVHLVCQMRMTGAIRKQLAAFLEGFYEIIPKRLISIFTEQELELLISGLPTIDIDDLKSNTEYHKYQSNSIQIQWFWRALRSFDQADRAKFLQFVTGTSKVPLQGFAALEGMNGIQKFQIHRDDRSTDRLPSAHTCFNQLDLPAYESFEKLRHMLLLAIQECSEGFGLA

Experiment [3] concerns the target T3, MBP-tagged activation segment of HUWE1 (residues 3843–3902) (human, UniProt Q7Z6Z7 3843-3902).
T3 construct: pETM41: N-terminal TEV protease-cleavable MBP-tag, C-terminal 3C protease-cleavable His6-tag; source: E. coli BL21(DE3), purified (IMAC, gel filtration); not shown: MBP, N-terminal, kept; His6, C-terminal, kept
T3 sequence (looked up): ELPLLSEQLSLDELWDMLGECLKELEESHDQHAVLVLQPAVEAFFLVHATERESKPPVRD

The target of experiment [4] is T4, HUWE1 (3993–4374), HECT domain (human, UniProt Q7Z6Z7 3993-4374).
T4 construct: also called isolated HECT domain; source: LOBSTR RIL cells, purified (IMAC, gel filtration)
T4 sequence (looked up): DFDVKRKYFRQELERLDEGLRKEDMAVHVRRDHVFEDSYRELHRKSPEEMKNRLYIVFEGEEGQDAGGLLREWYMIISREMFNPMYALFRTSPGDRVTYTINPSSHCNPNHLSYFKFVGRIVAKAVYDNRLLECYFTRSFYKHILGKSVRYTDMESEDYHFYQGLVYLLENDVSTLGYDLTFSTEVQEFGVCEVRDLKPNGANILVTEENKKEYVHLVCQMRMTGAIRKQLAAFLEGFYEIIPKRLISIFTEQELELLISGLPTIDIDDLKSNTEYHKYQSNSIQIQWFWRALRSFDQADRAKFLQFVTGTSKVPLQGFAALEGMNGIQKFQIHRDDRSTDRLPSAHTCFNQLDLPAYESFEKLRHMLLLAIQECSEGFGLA

Experiment [5] deals with T5, HUWE1 (3896–4374) (human, UniProt Q7Z6Z7 3896-4374).
T5 construct: source: LOBSTR RIL cells, purified (IMAC, gel filtration)
T5 sequence (looked up): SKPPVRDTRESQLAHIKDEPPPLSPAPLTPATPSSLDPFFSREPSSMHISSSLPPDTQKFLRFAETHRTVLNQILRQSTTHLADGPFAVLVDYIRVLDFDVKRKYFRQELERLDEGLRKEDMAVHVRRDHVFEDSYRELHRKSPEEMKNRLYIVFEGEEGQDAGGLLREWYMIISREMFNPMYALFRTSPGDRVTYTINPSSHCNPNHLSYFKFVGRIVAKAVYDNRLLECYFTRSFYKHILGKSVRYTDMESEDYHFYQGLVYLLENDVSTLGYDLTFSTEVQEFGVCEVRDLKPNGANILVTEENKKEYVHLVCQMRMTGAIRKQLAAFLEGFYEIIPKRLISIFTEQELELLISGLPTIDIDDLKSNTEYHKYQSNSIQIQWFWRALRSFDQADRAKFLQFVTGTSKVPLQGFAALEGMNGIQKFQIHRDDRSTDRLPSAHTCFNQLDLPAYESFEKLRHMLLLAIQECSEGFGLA

Ends that are not written are not given here.

B1: fluorophor-labeled p14ARF-derived peptide (residues 45–64), TAMRA-labelled (peptide)
peptide: LVLMLLRSQRLGQQPLPRRPK(TAMRA)
notes: p14ARF (alternative reading frame product of CDKN2A), human, residues 45–64; additional lysine residue at the C-terminus that carries the TAMRA label (told in words); also called p14ARF-peptide; p14ARF (45-64); source: synthetic peptide, bought: Elim Biopharm
On to B1, for which the Kd in experiment [1] was 5.2 ± 0.2 µM; in experiment [2], 6 ± 1 µM; in experiment [3] it was 3.6 ± 0.2 µM; in experiment [4], 230 ± 40 µM; in experiment [5] it was 340 ± 60 µM.
